In US20070053889A1 (AMSTERDAM MOLECULAR THERAPEUTICS AMT IP B V, published 2007):

Target: T1, integrin α4β7 expressed on transduced human CD4+ T cells (human, UniProt P13612 34-1032; P26010 20-798)
T1 construct: whole, on cells; Endogenous integrin on sorted human CD4+ cells transduced with the GFP or IL-10-GFP retroviral vector; The cells were CFDSE-labelled in the adhesion assay; also called αA4β7; gut-homing molecule α4β7
Assay: cell adhesion assay with blocking mAbs
Protocol: Adhesion of sorted CD4⁺ cells, transduced with GFP (1 donor) or IL-10-GFP (2 donors), to MAdCAM-1 transfected 293T cells was determined after preincubation with or without the following mAbs: 145 2C11 (control), act-1 (αA4β7) or MECA-367 (αMAdCAM-1). Fluorescent-labelled CD4⁺ cells were added to a 96 well plate that contained confluent MAdCAM-1 transfected 293T cells or control 293T cells. Relative binding inhibition was referred to the maximum binding achieved in the absence of mAbs (as described in Materials and Methods).
We investigated whether transduced CD4⁺ cells were able to bind to the mucosal addressin MAdCAM-1 measuring their adhesion to 293T cells stably expressing the murine MAdCAM cDNA (kindly provided by Dr. S. Fong, Genentech Inc., San Fransisco, Calif., USA). […] Fluorescence was measured in a Cytofluor plate reader (Perceptive Biosystems, Frarningham, Mass., USA) before and after washing. The adherence was calculated as the percentage of fluorescent cells remaining after washing. The maximum binding was calculated as the difference in adherence to MAdCAM-1 transfected and control 293T cells.

T1 sequence (P13612 34-1032, chain 1 of 2): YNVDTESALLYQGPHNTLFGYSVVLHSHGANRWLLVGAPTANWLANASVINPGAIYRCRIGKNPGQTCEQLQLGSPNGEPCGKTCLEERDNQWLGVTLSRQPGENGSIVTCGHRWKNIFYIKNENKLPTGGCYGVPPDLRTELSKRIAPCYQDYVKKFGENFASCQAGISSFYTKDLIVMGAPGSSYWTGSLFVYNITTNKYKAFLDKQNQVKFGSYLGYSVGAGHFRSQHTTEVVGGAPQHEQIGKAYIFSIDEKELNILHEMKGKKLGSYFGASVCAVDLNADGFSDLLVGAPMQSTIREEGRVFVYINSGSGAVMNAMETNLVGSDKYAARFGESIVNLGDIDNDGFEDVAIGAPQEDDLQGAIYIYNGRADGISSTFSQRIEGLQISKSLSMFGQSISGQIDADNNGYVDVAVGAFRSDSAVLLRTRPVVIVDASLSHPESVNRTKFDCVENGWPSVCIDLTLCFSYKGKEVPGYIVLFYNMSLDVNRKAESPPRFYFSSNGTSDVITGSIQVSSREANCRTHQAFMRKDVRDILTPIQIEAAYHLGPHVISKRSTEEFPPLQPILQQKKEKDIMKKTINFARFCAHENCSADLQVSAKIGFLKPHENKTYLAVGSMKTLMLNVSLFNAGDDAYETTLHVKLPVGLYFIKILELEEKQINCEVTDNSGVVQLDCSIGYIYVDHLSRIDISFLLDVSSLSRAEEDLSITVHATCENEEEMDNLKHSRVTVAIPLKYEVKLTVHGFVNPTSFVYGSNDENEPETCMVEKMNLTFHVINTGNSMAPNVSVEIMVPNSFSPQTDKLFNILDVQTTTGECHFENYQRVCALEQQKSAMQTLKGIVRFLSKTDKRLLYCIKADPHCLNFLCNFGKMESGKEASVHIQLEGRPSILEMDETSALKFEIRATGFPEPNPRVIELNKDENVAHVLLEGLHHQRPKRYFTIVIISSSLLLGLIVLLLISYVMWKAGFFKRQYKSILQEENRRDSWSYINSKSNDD
T1 sequence (P26010 20-798, chain 2 of 2): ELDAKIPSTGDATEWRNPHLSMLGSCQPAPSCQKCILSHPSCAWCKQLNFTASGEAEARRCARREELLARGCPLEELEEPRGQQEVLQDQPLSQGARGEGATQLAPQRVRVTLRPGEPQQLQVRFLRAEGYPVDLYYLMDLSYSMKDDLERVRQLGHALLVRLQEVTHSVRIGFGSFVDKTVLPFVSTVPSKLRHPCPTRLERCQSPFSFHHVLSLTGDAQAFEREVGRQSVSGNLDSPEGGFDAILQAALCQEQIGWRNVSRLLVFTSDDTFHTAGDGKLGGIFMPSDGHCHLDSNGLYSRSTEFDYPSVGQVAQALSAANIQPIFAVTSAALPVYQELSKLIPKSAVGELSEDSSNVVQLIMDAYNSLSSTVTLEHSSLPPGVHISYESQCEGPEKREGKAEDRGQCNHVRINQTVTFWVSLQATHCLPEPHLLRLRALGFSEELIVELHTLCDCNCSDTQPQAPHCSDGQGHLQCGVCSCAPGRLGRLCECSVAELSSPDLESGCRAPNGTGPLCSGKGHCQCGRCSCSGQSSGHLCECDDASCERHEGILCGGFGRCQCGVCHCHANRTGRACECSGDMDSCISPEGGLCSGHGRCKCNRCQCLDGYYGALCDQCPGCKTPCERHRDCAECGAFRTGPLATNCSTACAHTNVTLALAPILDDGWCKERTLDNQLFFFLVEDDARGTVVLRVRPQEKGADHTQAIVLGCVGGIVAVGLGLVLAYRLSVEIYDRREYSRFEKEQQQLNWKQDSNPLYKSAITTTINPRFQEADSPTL

B1: murine MAdCAM-1 stably expressed on 293T cells (ligand, UniProt Q61826 22-405, looked up)
chain: QSFQVNPPESEVAVAMGTSLQITCSMSCDEGVARVHWRGLDTSLGSVQTLPGSSILSVRGMLSDTGTPVCVGSCGSRSFQHSVKILVYAFPDQLVVSPEFLVPGQDQVVSCTAHNIWPADPNSLSFALLLGEQRLEGAQALEPEQEEEIQEAEGTPLFRMTQRWRLPSLGTPAPPALHCQVTMQLPKLVLTHRKEIPVLQSQTSPKPPNTTSAEPYILTSSSTAEAVSTGLNITTLPSAPPYPKLSPRTLSSEGPCRPKIHQDLEAGWELLCEASCGPGVTVRWTLAPGDLATYHKREAGAQAWLSVLPPGPMVEGWFQCRQDPGGEVTNLYVPGQVTPNSSSTVVLWIGSLVLGLLALVFLAYRLWKCYRPGPRPDTSSCTHL
notes: whole, on cells; 293T cells stably expressing the murine MAdCAM cDNA (from Dr. S. Fong, Genentech); also called mucosal addressin MAdCAM-1
B1: binds.
